Assay [1] deals with CdvC from Metallosphaera sedula (Vps4-like AAA ATPase) (Metallosphaera sedula). Kind of assay: SEC; CdvC alone at >75 µM (180 µM) on Superose 6; single high molecular weight peak. A general note: In gel filtration, larger molecules generally elute earlier.
The target of assay [2] is CdvB from Metallosphaera sedula (ESCRT-III-like), full length (Metallosphaera sedula). Kind of assay: SEC; CdvB and CdvC mixed, 20 µM each, on Superose 6; fractions analysed by SDS-PAGE; void volume peak holds both.

On to “CdvC from Metallosphaera sedula (Vps4-like AAA ATPase) (enzyme)”, for which, in assay [1], the stoichiometry N (commonly a count of units in the complex or per binding partner) is 12. In assay [2], “CdvC from Metallosphaera sedula (Vps4-like AAA ATPase)” showed a stoichiometry N of 1.

The values above are taken from PMC3132758.
